The labels stand for the following.
B1: MTSP-1 Q38H/I41S/D96K/F97G/ins97aV/T98P/F99L/C122S/Q192D (enzyme)
chain: VVGGTDADEGEWPWQVSLHALGHGHSCGASLISPNWLVSAAHCYIDDRGFRYSDPTQWTAFLGLHDQSQRSAPGVQERRLKRIISHPFFNKGVPLDYDIALLELEKPAEYSSMVRPISLPDASHVFPAGKAIWVTGWGHTQYGGTGALILQKGEIRVINQTTCENLLPQQITPRMMCVGFLSGGVDSCDGDSGGPLSSVEADGRIFQAGVVSWGDGCAQRNKPGVYTRLPLFRDWIKENTGV
B2: MTSP-1 Q38H/I41S/D96K/F97G/ins97aV/T98P/F99L/C122S/Q175L/Q192D (enzyme)
chain: B1 chain with Q170L
B3: MTSP-1 D96_F97delinsWYY/T98P/F99L/C122S (enzyme)
chain: B1 chain with H23Q, S26I, K91W, G92Y, V93Y, D189Q
B4: MTSP-1 I41S/D96K/F97G/ins97aV/T98P/F99L/C122S/Q175L/Q192D (enzyme)
chain: B1 chain with H23Q, Q170L
B5: MTSP-1 F97T/ins97aE/T98G/F99L/C122S/Q175L/Q192E (enzyme)
chain: B1 chain with H23Q, S26I, K91D, G92T, V93E, P94G, Q170L, D189E
B6: MTSP-1 protease domain I41T/F97L/F99L/C122S/G151N/Q175S/Q192S/D217W (enzyme)
chain: VVGGTDADEGEWPWQVSLHALGQGHTCGASLISPNWLVSAAHCYIDDRGFRYSDPTQWTAFLGLHDQSQRSAPGVQERRLKRIISHPFFNDLTLDYDIALLELEKPAEYSSMVRPISLPDASHVFPAGKAIWVTGWGHTQYGGTNALILQKGEIRVINQTTCENLLPQSITPRMMCVGFLSGGVDSCSGDSGGPLSSVEADGRIFQAGVVSWGWGCAQRNKPGVYTRLPLFRDWIKENTGV
B7: MTSP-1 H40R/I41H/C122S/G151N (enzyme)
chain: B6 chain with H25R, T26H, L92F, L94F, S169Q, S188Q, W214D
B8: MTSP-1 I41G/F97L/F99L/C122S/Q175A/Q192T/D217V (enzyme)
chain: B6 chain with T26G, N145G, S169A, S188T, W214V
B9: MTSP-1 C122S/G193A (enzyme)
chain: B6 chain with T26I, L92F, L94F, N145G, S169Q, S188Q, G189A, W214D
B10: MTSP-1 I41G/F97V/F99L/C122S/G151Q/Q175M/Q192A/D217L (enzyme)
chain: B6 chain with T26G, L92V, N145Q, S169M, S188A, W214L
B11: MTSP-1 H40R/I41H/F97D/F99L/C122S/Q175M/Q192G/D217S (enzyme)
chain: B6 chain with H25R, T26H, L92D, N145G, S169M, S188G, W214S
B12: MTSP-1 H40R/I41H/Y60gH/F97D/F99L/C122S/G151N/Q175A/Q192H/D217I/K224R (enzyme)
chain: B6 chain with H25R, T26H, Y52H, L92D, S169A, S188H, W214I, K221R
B13: MTSP-1 I41G/F97I/F99L/C122S/G151L/Q175M/Q192S/D217V (enzyme)
chain: B6 chain with T26G, L92I, N145L, S169M, W214V
B14: MTSP-1 H40R/I41H/F97D/C122S/G151N (enzyme)
chain: B6 chain with H25R, T26H, L92D, L94F, S169Q, S188Q, W214D
B15: MTSP-1 F97D/F99L/C122S/Q192G (enzyme)
chain: B6 chain with T26I, L92D, N145G, S169Q, S188G, W214D
B16: MTSP-1 F97E/F99L/C122S/D217I/K224N (enzyme)
chain: B6 chain with T26I, L92E, N145G, S169Q, S188Q, W214I, K221N
B17: MTSP-1 I41T/F97W/F99L/C122S/G151N/Q175M/Q192G/D217L (enzyme)
chain: B6 chain with L92W, S169M, S188G, W214L
B18: MTSP-1 H40R/I41H/F97D/F99L/C122S/Q192G (enzyme)
chain: B6 chain with H25R, T26H, L92D, N145G, S169Q, S188G, W214D
B19: MTSP-1 H40R/I41H/F97D/F99L/C122S/Q175L/Q192G/D217K/K224A (enzyme)
chain: B6 chain with H25R, T26H, L92D, N145G, S169L, S188G, W214K, K221A
B20: MTSP-1 H40R/I41H/F97D/F99L/C122S/Q175M/Q192G/D217V/K224Y (enzyme)
chain: B6 chain with H25R, T26H, L92D, N145G, S169M, S188G, W214V, K221Y
B21: MTSP-1 C122S/G193E (enzyme)
chain: B6 chain with T26I, L92F, L94F, N145G, S169Q, S188Q, G189E, W214D
B22: MTSP-1 H40R/I41H/F97E/C122S (enzyme)
chain: B6 chain with H25R, T26H, L92E, L94F, N145G, S169Q, S188Q, W214D
B23: MTSP-1 H40R/I41H/Y60gF/F97D/F99L/C122S/Q192G/D217M/K224R (enzyme)
chain: B6 chain with H25R, T26H, Y52F, L92D, N145G, S169Q, S188G, W214M, K221R
B24: MTSP-1 I41G/F97S/F99L/C122S/G151N/Q175L/Q192G/D217I (enzyme)
chain: B6 chain with T26G, L92S, S169L, S188G, W214I
B25: MTSP-1 H40R/I41H/F97D/F99L/Q192G (enzyme)
chain: B6 chain with H25R, T26H, L92D, S117C, N145G, S169Q, S188G, W214D
B26: MTSP-1 H40R/I41H/F97D/F99L/C122S/Q175K/Q192G/D217I/K224H (enzyme)
chain: B6 chain with H25R, T26H, L92D, N145G, S169K, S188G, W214I, K221H
B27: MTSP-1 H40R/I41H/Y60gF/F97D/F99L/C122S/Q192G/D217R/K224A (enzyme)
chain: B6 chain with H25R, T26H, Y52F, L92D, N145G, S169Q, S188G, W214R, K221A
B28: MTSP-1 protease domain I41D/F97T/F99M/C122S/Q192V/D217M (enzyme)
chain: B6 chain with T26D, L92T, L94M, N145G, S169Q, S188V, W214M
B29: MTSP-1 C122S/G151N/G193A (enzyme)
chain: B6 chain with T26I, L92F, L94F, S169Q, S188Q, G189A, W214D

Numbering of substitutions follows the chain as printed. In names and notes the source's numbering stands.

Chain of plasma purified human complement protein C3 (human) (P01024 23-667, chain 1 of 2): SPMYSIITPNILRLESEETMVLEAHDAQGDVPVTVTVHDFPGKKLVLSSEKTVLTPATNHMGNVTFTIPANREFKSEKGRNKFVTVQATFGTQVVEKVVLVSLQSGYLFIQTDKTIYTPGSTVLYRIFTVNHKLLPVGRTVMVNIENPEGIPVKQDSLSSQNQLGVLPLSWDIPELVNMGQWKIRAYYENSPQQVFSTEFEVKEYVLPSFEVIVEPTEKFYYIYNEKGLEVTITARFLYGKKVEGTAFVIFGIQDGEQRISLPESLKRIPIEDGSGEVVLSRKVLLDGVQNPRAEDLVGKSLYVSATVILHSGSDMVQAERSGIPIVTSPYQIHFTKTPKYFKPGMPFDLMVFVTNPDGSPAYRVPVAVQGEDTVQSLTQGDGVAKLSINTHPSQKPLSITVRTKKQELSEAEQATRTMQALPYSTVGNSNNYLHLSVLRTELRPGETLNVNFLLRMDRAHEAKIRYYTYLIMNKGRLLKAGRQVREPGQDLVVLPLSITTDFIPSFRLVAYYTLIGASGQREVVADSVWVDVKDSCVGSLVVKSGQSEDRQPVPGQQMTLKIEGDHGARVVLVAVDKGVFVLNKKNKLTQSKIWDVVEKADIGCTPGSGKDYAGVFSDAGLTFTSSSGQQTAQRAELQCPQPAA
Chain of plasma purified human complement protein C3 (human) (P01024 672-1663, chain 2 of 2): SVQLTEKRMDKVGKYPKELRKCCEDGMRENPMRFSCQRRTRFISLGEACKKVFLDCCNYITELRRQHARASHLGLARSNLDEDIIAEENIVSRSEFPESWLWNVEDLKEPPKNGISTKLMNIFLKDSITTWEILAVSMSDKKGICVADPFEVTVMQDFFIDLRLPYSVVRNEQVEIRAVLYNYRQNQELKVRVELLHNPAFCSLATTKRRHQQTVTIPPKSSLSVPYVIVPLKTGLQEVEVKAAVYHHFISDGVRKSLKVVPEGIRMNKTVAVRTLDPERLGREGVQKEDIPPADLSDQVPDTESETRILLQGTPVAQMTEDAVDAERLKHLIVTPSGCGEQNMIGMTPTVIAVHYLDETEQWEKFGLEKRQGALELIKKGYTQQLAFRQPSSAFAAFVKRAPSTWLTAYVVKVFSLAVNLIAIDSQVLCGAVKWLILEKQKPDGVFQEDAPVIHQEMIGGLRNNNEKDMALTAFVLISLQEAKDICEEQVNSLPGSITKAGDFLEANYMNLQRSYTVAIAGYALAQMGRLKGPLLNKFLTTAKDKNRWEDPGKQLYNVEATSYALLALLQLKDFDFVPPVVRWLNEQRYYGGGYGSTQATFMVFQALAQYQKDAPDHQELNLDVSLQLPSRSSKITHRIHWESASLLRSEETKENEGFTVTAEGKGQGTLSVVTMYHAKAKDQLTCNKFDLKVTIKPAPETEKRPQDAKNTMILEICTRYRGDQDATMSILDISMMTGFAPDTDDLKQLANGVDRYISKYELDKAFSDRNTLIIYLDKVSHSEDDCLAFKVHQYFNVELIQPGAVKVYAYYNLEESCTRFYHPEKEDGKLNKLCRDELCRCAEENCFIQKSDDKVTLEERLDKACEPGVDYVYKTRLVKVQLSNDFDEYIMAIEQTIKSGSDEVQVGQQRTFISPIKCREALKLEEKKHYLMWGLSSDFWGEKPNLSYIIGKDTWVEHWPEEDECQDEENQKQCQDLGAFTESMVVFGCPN

The test addresses plasma purified human complement protein C3 (human) (UniProt P01024). As to the kind of experiment: cell-based or functional assay.
Consider B1, for which the EC50 of hC3 cleavage came to 108 nM.

In the case of B2, the EC50 of hC3 cleavage was 22 nM.

B3 yielded an EC50 of hC3 cleavage of 22.6 nM.

Turning to B4, the EC50 of hC3 cleavage stood at 68.6 nM.

B5 yielded an EC50 of hC3 cleavage of 259 nM.

As for B6, the EC50 hC3 cleavage amounted to 24.2 nM.

The molecule B7 came in with an EC50 of hC3 cleavage of 59.6 nM.

As for B8, the EC50 of hC3 cleavage stood at 7.75 nM.

Molecule B9 returned an EC50 of hC3 cleavage of 44.7 nM.

The molecule B10 gave an EC50 of hC3 cleavage of 9.74 nM.

B11 displayed an EC50 of hC3 cleavage of 24.4 nM.

Consider B12, for which the EC50 of hC3 cleavage stood at 19.8 nM.

In turn, B13 returned an EC50 of hC3 cleavage of 2.84 nM.

As for B14, the EC50 of hC3 cleavage worked out at 110 nM.

In turn, B15 showed an EC50 of hC3 cleavage of 78.1 nM.

Consider B16, for which the EC50 of hC3 cleavage is 6.33 nM.

Take B17: the EC50 of hC3 cleavage was 12.1 nM.

With B18, the EC50 of hC3 cleavage came to 35.4 nM.

As to B19, the EC50 of hC3 cleavage stood at 14.1 nM.

The molecule B20 gave an EC50 of hC3 cleavage of 2.76 nM.

In turn, B21 returned an EC50 of hC3 cleavage of 119 nM.

Regarding B22, the EC50 of hC3 cleavage is 51.7 nM.

Molecule B23 gave an EC50 of hC3 cleavage of 38 nM.

B24: the EC50 of hC3 cleavage was 6.84 nM.

B25 returned an EC50 of hC3 cleavage of 24.1 nM.

The molecule B26 registered an EC50 of hC3 cleavage of 19.4 nM.

B27 yielded an EC50 of hC3 cleavage of 25.9 nM.

The molecule B28 yielded an EC50 hC3 cleavage of 63.8 nM.

Regarding B29, the EC50 of hC3 cleavage was 85.7 nM.

The values above are taken from patent US20240018502A1.
